Assay results published in patent US20250340655A1, “EPHA2-TARGETING ANTIBODIES AND THEIR APPLICATIONS IN CANCER TREATMENT” (TAIPEI MEDICAL UNIVERSITY, priority 2022, published 2025).

Assays:
[1] = molecular target: T1, EphA1 overexpressed on 293T cells (UniProt P21709 26-976, limits assumed); assay: flow cytometry on 293T cells overexpressing EphA1-A8
T1 construct: whole, on cells
T1 sequence (looked up): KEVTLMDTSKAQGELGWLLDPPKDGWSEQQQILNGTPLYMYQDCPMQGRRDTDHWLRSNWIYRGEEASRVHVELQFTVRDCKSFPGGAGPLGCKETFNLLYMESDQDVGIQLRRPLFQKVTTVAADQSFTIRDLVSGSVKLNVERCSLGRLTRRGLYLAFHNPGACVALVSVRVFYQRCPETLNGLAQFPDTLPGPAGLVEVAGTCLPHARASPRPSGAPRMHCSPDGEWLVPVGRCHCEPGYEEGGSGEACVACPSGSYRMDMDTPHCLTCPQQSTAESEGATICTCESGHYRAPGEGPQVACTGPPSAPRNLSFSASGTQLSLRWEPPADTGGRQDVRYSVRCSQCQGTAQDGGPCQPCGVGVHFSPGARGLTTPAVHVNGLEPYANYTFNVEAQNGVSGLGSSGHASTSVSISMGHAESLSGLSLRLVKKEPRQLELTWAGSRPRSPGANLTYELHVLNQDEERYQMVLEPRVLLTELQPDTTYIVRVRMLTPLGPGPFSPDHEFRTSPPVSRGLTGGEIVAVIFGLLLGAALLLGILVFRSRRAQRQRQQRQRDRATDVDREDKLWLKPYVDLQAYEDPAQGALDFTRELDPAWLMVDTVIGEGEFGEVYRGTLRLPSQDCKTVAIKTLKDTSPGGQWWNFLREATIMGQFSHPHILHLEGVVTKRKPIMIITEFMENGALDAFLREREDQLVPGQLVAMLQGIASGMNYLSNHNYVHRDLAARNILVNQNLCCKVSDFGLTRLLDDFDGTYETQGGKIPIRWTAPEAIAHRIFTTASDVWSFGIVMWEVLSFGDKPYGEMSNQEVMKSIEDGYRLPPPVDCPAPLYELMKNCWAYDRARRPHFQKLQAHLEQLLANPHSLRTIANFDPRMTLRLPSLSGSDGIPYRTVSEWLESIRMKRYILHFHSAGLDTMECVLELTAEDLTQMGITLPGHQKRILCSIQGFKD
Experimental: (§1) To detect the binding specificity of scFv, 293T cells were transformed with EphA1-A8 plasmids individually for overexpression of different EphA molecules. The cell line was freshly prepared and washed with FACS buffer (2% FBS in PBS). The cells were seeded at 1×10⁵ cells/well into a 96-well Ubottom plate and incubated with scFv for 1 h at 4° C. After the plate was washed with FACS buffer, the anti-hemagglutinin (HA) antibody was added for scFv binding detection (scFv was fused with a HA tag) and subsequently developed using an FITC-conjugated secondary antibody. Finally, the cell binding signal was analyzed using a FACS can flow cytometer.

[2] = molecular target: T2, EphA6 overexpressed on 293T cells (UniProt Q9UF33 23-1036, limits assumed); assay: as above
T2 construct: whole, on cells
T2 sequence (looked up): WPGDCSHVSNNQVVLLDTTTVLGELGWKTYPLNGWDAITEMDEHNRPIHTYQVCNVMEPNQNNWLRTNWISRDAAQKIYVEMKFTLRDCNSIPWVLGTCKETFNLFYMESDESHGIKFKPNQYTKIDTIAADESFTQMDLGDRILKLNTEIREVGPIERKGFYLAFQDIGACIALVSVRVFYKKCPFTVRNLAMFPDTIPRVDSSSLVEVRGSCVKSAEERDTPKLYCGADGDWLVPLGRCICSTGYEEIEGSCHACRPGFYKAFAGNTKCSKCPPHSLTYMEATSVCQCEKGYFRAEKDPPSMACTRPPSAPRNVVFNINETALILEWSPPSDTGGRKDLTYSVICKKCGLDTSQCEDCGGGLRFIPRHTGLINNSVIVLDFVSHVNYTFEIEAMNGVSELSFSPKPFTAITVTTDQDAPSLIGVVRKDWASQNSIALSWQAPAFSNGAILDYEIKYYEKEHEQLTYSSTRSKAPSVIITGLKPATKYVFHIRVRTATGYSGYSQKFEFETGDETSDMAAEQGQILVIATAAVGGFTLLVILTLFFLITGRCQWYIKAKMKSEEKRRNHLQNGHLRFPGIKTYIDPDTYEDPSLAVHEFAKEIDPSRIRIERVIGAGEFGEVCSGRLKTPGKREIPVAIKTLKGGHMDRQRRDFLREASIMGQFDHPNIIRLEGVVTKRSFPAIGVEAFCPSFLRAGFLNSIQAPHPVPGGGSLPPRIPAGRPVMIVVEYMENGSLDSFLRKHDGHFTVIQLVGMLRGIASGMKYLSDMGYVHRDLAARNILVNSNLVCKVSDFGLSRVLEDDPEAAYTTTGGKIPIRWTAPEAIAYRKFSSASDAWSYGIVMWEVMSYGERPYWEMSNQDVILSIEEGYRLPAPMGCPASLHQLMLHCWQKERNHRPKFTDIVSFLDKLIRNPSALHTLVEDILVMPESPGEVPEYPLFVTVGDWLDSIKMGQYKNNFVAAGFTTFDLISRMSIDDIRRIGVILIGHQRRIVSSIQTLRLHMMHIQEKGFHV
Experimental: as §1

B1: Humanized scFv hSD5 (scFv)
scFv: LTQPPSVSVSPGQTVRITCSGSSGSYGWYQQKSPGQAPVTLIYDNDKRPSGIPERFSGSSSGSTSTLTISGVQAEDEADYYCGSADSSTYVGMFGGGTKLTVLGQSSRSSQVQLVESGGGLVQPGGSLRLSCAASGFTFSDYGMGWVRQAPGKGLEWVAGISAAGSFTPYGAAVKGRFTISRDNSKNTVYLQMNSLRAEDTAVYYCARIPSGYRAGEIYTWGQGTLVTVSS
notes: also called hSD5 scFv; Humanized scFv hSDS
binding result [1]: no binding
binding result [2]: no binding
